# ± gives the half width of the 95% confidence interval.
# Assay: folding stability dG unfold from trypsin proteolysis; higher = more stable
# Outline: (§1)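 Bayesian fitting of sequencing counts gave K50 for each design. Unfolding free energy followed by setting this against a sequence-predicted unfolded-state K50 and a shared folded-state K50, either per protease or with trypsin and chymotrypsin combined. The designs, under 80 residues and lacking cysteine, were digested in a PA-tagged cDNA display format at 11 threefold-diluted protease concentrations and without protease, and only those with AlphaFold2 dimer inter-PAE above 15 were kept.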
row,Sequence,folding stability dG unfold
1,SAGGMELVGEYEVELPDVPIRFPVYRVPEAGLVVVEAERYDPSTGEWTPLGVVPLPEGSAEEALKALSAGGS [r8_423_TrMRF],1.21 ± 0.034 kcal/mol
2,SAGMAKVKLKVEVYFPKTGKPVTMEIEVEGLTLEEIIEEVKKAIEAIGLKIDPDAPVKIVITDIEVYPGSAG [r5_230_TrMRF],3.75 ± 0.11 kcal/mol
3,SAGNPVLLKRPFIDPENGEPVYELTLFDPESNIVTTLFFNSDGKVIAVAVAYVPPETDEVDIELSVFDGSAG [r5_747_TrMRF],1.52 ± 0.053 kcal/mol
4,SAGGSAGGSAGAANDPKKIPIHIFPPDGKPIFKVKIEVYDNGIKIKIEWHPSPDGLYPMISAGGSAGGSAGG [r11_874_TrROS],1.9 ± 0.089 kcal/mol
5,SAGDKGRYHFPFTVTMPPGKPPSQIEDALGKYGWDDVDINREPPPNGETKYTINVHMPKEDLPKLLEAFSAG [r5_376_TrROS],0.895 ± 0.039 kcal/mol
6,GSAGVMFGSREDIEALAAALGPDVAPTDVTYDPSGYYYYTIPLPDGTPTSLTIPPDKYSPEEVAALARRLTS [r1_279_JUSTAS],-0.346 ± 0.56 kcal/mol
7,SAGNRYEVNLTYMYPPDDPGLIEKIKKILRKLGWEIEKVKEQRMPDNKMRMVTHKIRIPGLPPEALKAFSAG [r14_956_TrROS],0.918 ± 0.16 kcal/mol
8,SAGGSAGGSAMPPLISTTPILGEEPGKRLVREIVTLPDGSLIELTYDEDGNVIESKKYIVGKSAGGSAGGSA [r18_467_JUSTAS],0.132 ± 0.041 kcal/mol
9,SAGGSAGGSAGGYIEIVFAHPDPEPGYKYAMVMEIQMDPPGNMEMNIRVIKDPEDAKEAFSAGGSAGGSAGG [r11_792_TrROS],1.35 ± 0.12 kcal/mol
10,SALWVIKDTIKPPNGKKRKISIAIPNDGLYVWFNGGSFPIPLKEIKKIMENFPGYQIDDIEIMPLDELKSAG [r14_336_TrROS],0.798 ± 0.19 kcal/mol
11,SAGGKKKVFLLENGELVVFDPETGKLEPVKLPEIPLTVEVEFEEGEGKIRVTVTNPAGLKLEFEFDFSAGGS [r16_453_TrMRF],2.21 ± 0.12 kcal/mol
12,SAGGDPNGKWVTINIPIWIPGPPEQAEMIAESIMEELGFEITDVKVEPHPDDPNWVRIDITLTFRKKSAGGS [r8_479_TrROS],2.74 ± 0.097 kcal/mol
13,SKKIKLSEEMKEAIKEAVKKAKPGEKVEITIKLKDGSIIKIEIYPDGTIKISVFDKNGKKIKEFEIKIKPSA [r9_132_TrROS_Hall],1.43 ± 0.075 kcal/mol
14,SAGGGLEEFARRLAEELARLLGGPNVPFELEGVVVFGFRLRPDGTPEPTTSRPVVVRVRFETPGGDPSAGGS [r16_156_TrMRF],2.7 ± 0.11 kcal/mol
15,SAGMKPGEKVKVTLTLTETRVEEVDGEKKVEKRTLTIEVTVEVSEEDREKALEEAEELARKLAEEGLIPSAG [r5_532_TrROS_Hall],1.21 ± 0.15 kcal/mol
16,SAGGSAGGSAGPKPLATITLPYPDNASVTITVTPNGVLIDPDPNITNPEVEKAVADALTDSAGGSAGGSAGG [r11_372_TrMRF],1.55 ± 0.11 kcal/mol
17,SAGGSAGGSEPVVIKVTVTNENGEKRTITLPEIEVEPGETIEEIAAALAAEPGVKEVKVEVVPSAGGSAGGS [r12_199_TrROS_Hall],0.702 ± 0.022 kcal/mol
18,SAGMTLTVVLPVPEEMTEEEAAEILRAYVDAVVAELLAGDAVAVPKEIVVDKETGTAVAKVELFIPPDLSAG [r5_146_TrMRF],2.59 ± 0.064 kcal/mol
19,SAGMIKIEETDGKLKVTITLKADDPEEITVEMIKEELEKLGLEVAEIKITPEPNEDGQYTVTAEIVVDVSAG [r5_922_TrMRF],2.99 ± 0.39 kcal/mol
20,SAGGSAGGKPKVVELELTTEDGSKVRVVFTEDSVYIYNEETGLLVKYNLKTGKFELKEVYPLEESAGGSAGG [r6_462_TrROS_Hall],2.15 ± 0.15 kcal/mol
21,SAGLRIEPTPDYIKITMPGPNMANEIIKKIQEHFGDIEIDDIKPEPYPNGNNRVTIWIPLKNLPPELLKSAG [r5_857_TrROS],0.895 ± 0.028 kcal/mol
22,MEKVLILAKIKLKGPDGEEAEIDFAVEISPEEATPELLKKVREEAEEIAEALKEKGYEVELEVEVVKLGEES [r1_221_TrMRF],3.62 ± 0.48 kcal/mol

row,Sequence,folding stability dG unfold
1,SAKTIKIEIEVKPEKLEEVLEEIAKALAEKLGLPEDVKEIKIEVTKIEVEKVKVDGKEYVKVKIEIKVESAG [r14_736_TrROS_Hall],3.04 ± 0.19 kcal/mol
2,SAGGSAGGSAGGGMPVEMKITLYDPDGTKIGEYTLKVKSEEELKKAVEEKGYNYEVDKESAGGSAGGSAGGS [r10_958_JUSTAS],0.198 ± 0.067 kcal/mol
3,SAGGGPLKPILLKVTAKVEKNGKLLEVEAEIAVPLPNKPITLEEIRKILEEALPPDVKIVSLELDPESAGGS [r16_407_TrMRF],2.99 ± 0.2 kcal/mol
4,SAGGSAGGSAGGFRIKITEIWPISMEMRKPDPENGKWKEQPMTIMIIRIKIENLPPGAKISAGGSAGGSAGG [r17_530_TrROS],2.54 ± 0.048 kcal/mol
5,SAGGSAGGSAGMKTLKTTTKVFPGTGVIVTESLVEFPNGSLKKLTKVTYVKNPNPSTTLASAGGSAGGSAGG [r17_41_JUSTAS],0.474 ± 0.093 kcal/mol
6,SAGGGNKVLLVVEAESPEVLEEKIREAEEAFGFTVTPLRREPLPDDRYRLVLEIDAPPEVVEFFKKESAGGS [r8_357_TrMRF],1.15 ± 0.032 kcal/mol
7,SMVVIEFETKKPKEQAEKAVEKAKKEIPELEEVLEIEVEEFPDFLKVKIVLKGGKITPEDLEKLKEFLEKSA [r9_195_TrMRF],2.67 ± 0.27 kcal/mol
8,SAGGSAGGSAGMIVLFPLEEKKFIIYDPETGKVEEIEGTPEEVLEYAKKKYPDKEVYLLPSAGGSAGGSAGG [r11_614_TrMRF],3.25 ± 0.36 kcal/mol
9,SAGGSAENDRFIVRVTIQMRNPGDGEKRTHTIPWFEFEPGKPAEEFAIDIADDFGIDNIDVEVYPLSAGGSA [r15_540_TrROS],1.35 ± 0.023 kcal/mol
10,KIKIEPGETVRIKVKVKLPDGEEKEIEIELSLEELEKKLGRPLTPEEILNLIKEEAEKKGFEVEEVEIEKES [r1_338_TrROS_Hall],0.391 ± 0.12 kcal/mol
11,SMLVSVTFPLTLEPEEGDHTVRIYATAPDGSSLGEVTAPVKAVGDKVEFEVTATFPLPEGAVIERIETEPSA [r9_292_TrMRF],0.681 ± 0.025 kcal/mol
12,SAGGSAGGSAGGSMSGVFSTETVFLEKTLPDGSRVEALTTIETYLPLPPLPPFKFPSAVSAGGSAGGSAGGS [r4_325_JUSTAS],0.13 ± 0.1 kcal/mol
13,SAGGSPEEIANEVKEKILKELPPGVKVEVSVEVTPEGATVTVKVPEGKEYTVKVEGDKIVEIKLLKKSAGGS [r8_287_JUSTAS],0.921 ± 0.081 kcal/mol
14,SSITETKEFLLESEEEVEAIAEELKKPGVEVEVEVKEVERVDKKTGKKKKALKATITVKIPLPPPEKGKLSA [r9_962_JUSTAS],0.79 ± 0.054 kcal/mol
15,SAGGSAGGSAGGKKKLKIKIEIKIEEKIKKTPNGKLEKEKKIEITKIIEIEPDSPLLKKLSAGGSAGGSAGG [r7_889_TrROS_Hall],2.17 ± 0.14 kcal/mol
16,SAGGSAGGDPNKPPPPKQIEIPIPPDNITDVEPNPDGFYFMEFNLPDGDSITIIVYPDGNIHIMSAGGSAGG [r6_119_TrROS],2.83 ± 0.28 kcal/mol
17,SAGGSAGGSAGMITIYAPPSVPVEEVREEVKEKIKKENPNDPKEVKGVEVDPNGSLEELESAGGSAGGSAGG [r17_43_JUSTAS],-0.286 ± 0.12 kcal/mol
18,SAGGKPKKKPPPVIEIVDIRVEYDPETKEVRITVKIRLPNGETLTLTITVPPGTTLEELLEKLKELLSSAGG [r13_578_TrROS_Hall],4.11 ± 0.61 kcal/mol
19,SAGGDVGLEEKAREIAEELREEISKKLGVNVKVTEVKVEYDPKTGKYTVTVTITLPGGETITITVPESAGGS [r8_372_JUSTAS],3.85 ± 0.32 kcal/mol
20,KTYTIDEIAEKLGMSKEELKNMSAEEIKEALKKLLPPEEIEKVEISYNEKDKKVTITVTLKNGEKVEITIDS [r1_340_TrROS_Hall],4.04 ± 0.71 kcal/mol
21,SAGGSAGGSAGGYFIRYPGNGREIMIPPDDIEDFLDTLPPGFPPENVKIYPFDPNGKPISAGGSAGGSAGGS [r10_13_TrROS],-0.242 ± 0.2 kcal/mol

# Assay: folding stability dG unfold from chymotrypsin proteolysis; higher = more stable
# Outline: as §1
row,Sequence,folding stability dG unfold
1,SAGGMELVGEYEVELPDVPIRFPVYRVPEAGLVVVEAERYDPSTGEWTPLGVVPLPEGSAEEALKALSAGGS [r8_423_TrMRF],0.334 ± 0.089 kcal/mol
2,SAGMAKVKLKVEVYFPKTGKPVTMEIEVEGLTLEEIIEEVKKAIEAIGLKIDPDAPVKIVITDIEVYPGSAG [r5_230_TrMRF],3.77 ± 0.039 kcal/mol
3,SAGNPVLLKRPFIDPENGEPVYELTLFDPESNIVTTLFFNSDGKVIAVAVAYVPPETDEVDIELSVFDGSAG [r5_747_TrMRF],1.36 ± 0.099 kcal/mol
4,SAGGSAGGSAGAANDPKKIPIHIFPPDGKPIFKVKIEVYDNGIKIKIEWHPSPDGLYPMISAGGSAGGSAGG [r11_874_TrROS],1.98 ± 0.082 kcal/mol
5,SAGDKGRYHFPFTVTMPPGKPPSQIEDALGKYGWDDVDINREPPPNGETKYTINVHMPKEDLPKLLEAFSAG [r5_376_TrROS],0.933 ± 0.26 kcal/mol
6,GSAGVMFGSREDIEALAAALGPDVAPTDVTYDPSGYYYYTIPLPDGTPTSLTIPPDKYSPEEVAALARRLTS [r1_279_JUSTAS],0.703 ± 0.15 kcal/mol
7,SAGNRYEVNLTYMYPPDDPGLIEKIKKILRKLGWEIEKVKEQRMPDNKMRMVTHKIRIPGLPPEALKAFSAG [r14_956_TrROS],1.27 ± 0.23 kcal/mol
8,SAGGSAGGSAMPPLISTTPILGEEPGKRLVREIVTLPDGSLIELTYDEDGNVIESKKYIVGKSAGGSAGGSA [r18_467_JUSTAS],1.22 ± 0.037 kcal/mol
9,SAGGSAGGSAGGYIEIVFAHPDPEPGYKYAMVMEIQMDPPGNMEMNIRVIKDPEDAKEAFSAGGSAGGSAGG [r11_792_TrROS],1.43 ± 0.067 kcal/mol
10,SALWVIKDTIKPPNGKKRKISIAIPNDGLYVWFNGGSFPIPLKEIKKIMENFPGYQIDDIEIMPLDELKSAG [r14_336_TrROS],-0.15 ± 0.53 kcal/mol
11,SAGGKKKVFLLENGELVVFDPETGKLEPVKLPEIPLTVEVEFEEGEGKIRVTVTNPAGLKLEFEFDFSAGGS [r16_453_TrMRF],3.69 ± 0.1 kcal/mol
12,SAGGDPNGKWVTINIPIWIPGPPEQAEMIAESIMEELGFEITDVKVEPHPDDPNWVRIDITLTFRKKSAGGS [r8_479_TrROS],3.03 ± 0.044 kcal/mol
13,SKKIKLSEEMKEAIKEAVKKAKPGEKVEITIKLKDGSIIKIEIYPDGTIKISVFDKNGKKIKEFEIKIKPSA [r9_132_TrROS_Hall],2.59 ± 0.12 kcal/mol
14,SAGGGLEEFARRLAEELARLLGGPNVPFELEGVVVFGFRLRPDGTPEPTTSRPVVVRVRFETPGGDPSAGGS [r16_156_TrMRF],4.09 ± 0.044 kcal/mol
15,SAGMKPGEKVKVTLTLTETRVEEVDGEKKVEKRTLTIEVTVEVSEEDREKALEEAEELARKLAEEGLIPSAG [r5_532_TrROS_Hall],1.24 ± 0.07 kcal/mol
16,SAGGSAGGSAGPKPLATITLPYPDNASVTITVTPNGVLIDPDPNITNPEVEKAVADALTDSAGGSAGGSAGG [r11_372_TrMRF],1.07 ± 0.12 kcal/mol
17,SAGGSAGGSEPVVIKVTVTNENGEKRTITLPEIEVEPGETIEEIAAALAAEPGVKEVKVEVVPSAGGSAGGS [r12_199_TrROS_Hall],0.444 ± 0.039 kcal/mol
18,SAGMTLTVVLPVPEEMTEEEAAEILRAYVDAVVAELLAGDAVAVPKEIVVDKETGTAVAKVELFIPPDLSAG [r5_146_TrMRF],2.56 ± 0.027 kcal/mol
